Test results reported in patent US6861508B2, “Transcriptional intermediary factor-2” (Institut National de la Sante et de la Recherche Medicale, priority 1996, dated 2005).

T1: GST-hRARα(DEF) (pGEX2T-hRARα(DEF), amino acids 153-462) (human, UniProt P10276 153-462)
T1 construct: range 153-462; Bacterially produced; also called GST-RAR; GST-RARα(DEF); not shown: glutathione-S-transferase (GST) of pGEX2T (Pharmacia)
T1 sequence (looked up): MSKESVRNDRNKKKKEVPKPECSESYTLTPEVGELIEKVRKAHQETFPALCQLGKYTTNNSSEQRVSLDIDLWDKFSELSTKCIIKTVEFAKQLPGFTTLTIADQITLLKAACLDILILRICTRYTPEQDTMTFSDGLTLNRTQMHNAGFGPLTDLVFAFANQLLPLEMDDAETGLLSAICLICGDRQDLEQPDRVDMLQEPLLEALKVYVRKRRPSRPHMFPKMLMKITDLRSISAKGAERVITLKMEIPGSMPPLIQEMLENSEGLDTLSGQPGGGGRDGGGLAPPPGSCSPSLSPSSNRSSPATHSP

T2: GST-mRXRα(DE) (pGEX2T-mRXRα(DE), amino acids 205-467) (mouse, UniProt P28700 205-467)
T2 construct: range 205-467; also called GST-RXR; GST-RXRα(DE); not shown: glutathione-S-transferase (GST) of pGEX2T (Pharmacia)
T2 sequence (looked up): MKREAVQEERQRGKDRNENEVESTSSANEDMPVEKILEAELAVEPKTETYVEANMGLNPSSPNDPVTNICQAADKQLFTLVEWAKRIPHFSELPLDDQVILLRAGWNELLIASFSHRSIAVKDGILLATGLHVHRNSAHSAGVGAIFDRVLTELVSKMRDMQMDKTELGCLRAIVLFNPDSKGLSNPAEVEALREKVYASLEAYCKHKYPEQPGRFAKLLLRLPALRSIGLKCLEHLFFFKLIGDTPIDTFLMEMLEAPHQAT

T3: (His)6-TIF2.1, E. coli-expressed purified recombinant TIF2.1 (human, UniProt Q15596 624-1287)
T3 construct: also called His-tagged TIF2.1; purified TIF2.1 protein; not shown: (His)6 tag of pET15b
T3 sequence: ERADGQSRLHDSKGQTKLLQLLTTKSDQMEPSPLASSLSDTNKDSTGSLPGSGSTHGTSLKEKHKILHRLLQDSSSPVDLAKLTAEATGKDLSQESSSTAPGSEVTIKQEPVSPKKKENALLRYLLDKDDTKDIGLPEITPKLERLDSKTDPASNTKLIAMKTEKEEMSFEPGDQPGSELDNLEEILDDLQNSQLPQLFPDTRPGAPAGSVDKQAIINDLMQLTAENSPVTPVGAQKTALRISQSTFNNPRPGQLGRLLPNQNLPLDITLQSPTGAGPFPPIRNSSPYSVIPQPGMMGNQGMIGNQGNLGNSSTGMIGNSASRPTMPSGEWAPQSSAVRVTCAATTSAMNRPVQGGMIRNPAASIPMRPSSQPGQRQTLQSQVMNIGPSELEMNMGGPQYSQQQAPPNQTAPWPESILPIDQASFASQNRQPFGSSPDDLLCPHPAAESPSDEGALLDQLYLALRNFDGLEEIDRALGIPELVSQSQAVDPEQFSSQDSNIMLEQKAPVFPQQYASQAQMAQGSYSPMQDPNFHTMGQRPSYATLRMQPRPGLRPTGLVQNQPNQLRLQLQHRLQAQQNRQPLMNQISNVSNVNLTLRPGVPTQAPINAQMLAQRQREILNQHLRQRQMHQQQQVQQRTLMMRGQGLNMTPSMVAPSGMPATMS


How the values were obtained:
[1] = biological target: T1, GST-hRARα(DEF) (pGEX2T-hRARα(DEF), …); assay: in vitro GST interaction of TIF2.1 point mutants, with ligand, relative to TIF2.1 wild type
[2] = biological target: T2, GST-mRXRα(DE) (pGEX2T-mRXRα(DE), amino …); assay: as above
[3] = biological target: T3, (His)6-TIF2.1, E. coli-expressed …; assay: GST interaction assay (not shown)
GAL4 reporter = assay: GAL4 DBD-TIF2 fusion CAT reporter transactivation assay; format: cell-based; conditions: Cos-1 and/or HeLa cells
Method: (a) HeLa cells were cotransfected with 1 μg (17m)5-βG-CAT and 10 μg GAL(1-147) or 1,3 and 10 μg GAL(1-147)-TIF2.1, respectively.
(c) Analysis of the transcriptional activity of GAL-TIF2 fusion proteins. Cos-1 and HeLa cells were transfected with 3 lag of plasmids expressing different regions of TIF2 fised to the DNA-binding domain of the yeast transcription factor GALA together with 1 μg of the (7m)5-G-CAT reporterplasmid. CAT assays were performed as described (Bocquel, M. T. et al., Nucl Acids Res. 17:2581-2595 (1989)). Quantitative data on CAT reporter expression were obtained either by phosphoimager analysis (BAS2000, Fuji) of ^14C-labeled CAT reaction products separated by thin-layer chromatography, or using the CAT ELISA Kit (Boehringer Mannheim). In all cases, CAT activities were normalized to the β-galactosidase concentrations resulting from cotransfection of 1 μg of pCMVPGal (gift from T. Lerouge) as internal control. Fold inductions above the GAL4 DBD value are indicated. The mean and standard deviation of at least three experiments are shown. A representative Western blot, illustrating the expression levels of the GAL4-TIF2 fusion proteins, expressed from 10 μg of the corresponding expression vectors, is shown on the left.
(b) Transcriptional activation of TIF2 AF-1 mutants. Cos-1 and HeLa cells were cotransfected with 3 μg of plasmids expressing different mutants of the TIF2 AF-1 fused to the DNA-binding domain of the yeast transcription factor GAL4 together with 1 μg of the (17m)5-G-CAT reporter plasmid. Fold inductions above the activation seen with the GAL4 DBD alone are indicated. The values represent the mean of at least three experiments.
(a) Transcriptional activation by TIF2.13 and TIF2.13 mutants. Cos-1 and HeLa cells were cotransfected with 3 μg of plasmids expressing the TIF2.13 region and the indicated TIF2.13 mutants fused to the DNA-binding domain of the yeast transcription factor GALA together with 1 μg of the (17m)5-G-CAT reporter plasmid. Fold inductions above the GAL4 DBD 1-fold value are indicated. The mean and standard deviation obtained from at least four experiments are shown. The expression levels of the GAL4-TIF2.13 fusion proteins were confirmed by western blotting (data not shown).
Transient transfections of HeLa and Cos-1 cells were performed as described (Gronemeyer et al., (1987); Bocquel, M. T. et al., Nucl. Acids Res. 17:2581-2595 (1989)).

GAL-CBP = assay: two hybrid analysis of CBP-TIF2 interaction in HeLa cells; format: cell-based
Method: (e) Two hybrid analysis of the CBP-TIF2 interaction in mammalian cells in vivo. HeLa cells were transfected with 0.2 μg of the GAL4 or GALA-CBP (expressing CBP residues 1872 to 2165) expression vectors together with 0.2 μg of the VP16 or VPI6-TF2 expression vectors in the presence of 2 μg of (17m)5-TATA-CAT reporter plasmid. Fold induction relative to the GAL-CBP activity is indicated. The mean of three experiments is shown; in each case, values varied by less than ±20%.
HeLa cells were transfected with 0.2 μg of GAL4 or GAL-CBP expression vectors together with 0.2 μg of VP16 or VP16-TIF2.13 expression vectors in the presence of 1 μg of (17m)5-TATA-CAT reporter plasmid. Data are represented as fold induction of the activity seen with GAL-CBP alone. The mean and standard, deviation obtained from ten experiments are shown. The expression levels were confirmed by Western blotting with antibodies directed against GAL4 DBD and VP16 AAD (data not shown).
Furthermore, it was reported that SRC-1, which belongs to the same gene family as TIF2, interacts with CBP and p300 (Kamei, Y. et al., Cell 85:403-414 (1996); Yao, T. P. et al., Proc. Natl. Acad. Sci. USA 93:10626-10631 (1996); Hanstein, B., et al., Proc. Natl. Acad Sci USA 93:11540-11545 (1996)). Using GST-fusion protein-based interaction and animal cell-based two hybrid assays, we therefore analyzed whether TIF2 could also interact with CBP. […] A GST-CBP fusion protein was expressed in E. coli and used for puU-down assays with in vitro translated TIF2 polypeptides (FIG. 7d).

Molecule	times less efficient in NR interaction than the wild-type TIF2 [1]	times less efficient in NR interaction than the wild-type TIF2 [2]	binding result [3]	further results
TIF2.1 m13 (LL→AA in NR box motifs I and III) (other, also called single intact NR box II) ERADGQSRLHDSKGQTKLLQAATTKSDQMEPSPLASSLSDTNKDSTGSLPGSGSTHGTSLKEKHKILHRLLQDSSSPVDLAKLTAEATGKDLSQESSSTAPGSEVTIKQEPVSPKKKENALLRYAADKDDTKDIGLPEITPKLERLDSKTDPASNTKLIAMKTEKEEMSFEPGDQPGSELDNLEEILDDLQNSQLPQLFPDTRPGAPAGSVDKQAIINDLMQLTAENSPVTPVGAQKTALRISQSTFNNPRPGQLGRLLPNQNLPLDITLQSPTGAGPFPPIRNSSPYSVIPQPGMMGNQGMIGNQGNLGNSSTGMIGNSASRPTMPSGEWAPQSSAVRVTCAATTSAMNRPVQGGMIRNPAASIPMRPSSQPGQRQTLQSQVMNIGPSELEMNMGGPQYSQQQAPPNQTAPWPESILPIDQASFASQNRQPFGSSPDDLLCPHPAAESPSDEGALLDQLYLALRNFDGLEEIDRALGIPELVSQSQAVDPEQFSSQDSNIMLEQKAPVFPQQYASQAQMAQGSYSPMQDPNFHTMGQRPSYATLRMQPRPGLRPTGLVQNQPNQLRLQLQHRLQAQQNRQPLMNQISNVSNVNLTLRPGVPTQAPINAQMLAQRQREILNQHLRQRQMHQQQQVQQRTLMMRGQGLNMTPSMVAPSGMPATMS	5 times less efficient than wild type	5 times less efficient than wild type		
TIF2.1 m23 (LL→AA in NR box motifs II and III) (other, also called single intact NR box I) ERADGQSRLHDSKGQTKLLQLLTTKSDQMEPSPLASSLSDTNKDSTGSLPGSGSTHGTSLKEKHKILHRAAQDSSSPVDLAKLTAEATGKDLSQESSSTAPGSEVTIKQEPVSPKKKENALLRYAADKDDTKDIGLPEITPKLERLDSKTDPASNTKLIAMKTEKEEMSFEPGDQPGSELDNLEEILDDLQNSQLPQLFPDTRPGAPAGSVDKQAIINDLMQLTAENSPVTPVGAQKTALRISQSTFNNPRPGQLGRLLPNQNLPLDITLQSPTGAGPFPPIRNSSPYSVIPQPGMMGNQGMIGNQGNLGNSSTGMIGNSASRPTMPSGEWAPQSSAVRVTCAATTSAMNRPVQGGMIRNPAASIPMRPSSQPGQRQTLQSQVMNIGPSELEMNMGGPQYSQQQAPPNQTAPWPESILPIDQASFASQNRQPFGSSPDDLLCPHPAAESPSDEGALLDQLYLALRNFDGLEEIDRALGIPELVSQSQAVDPEQFSSQDSNIMLEQKAPVFPQQYASQAQMAQGSYSPMQDPNFHTMGQRPSYATLRMQPRPGLRPTGLVQNQPNQLRLQLQHRLQAQQNRQPLMNQISNVSNVNLTLRPGVPTQAPINAQMLAQRQREILNQHLRQRQMHQQQQVQQRTLMMRGQGLNMTPSMVAPSGMPATMS	20 times less efficient than wild type	20 times less efficient than wild type		
GST-hTAFII18 (printed hTAFn18) (other, human, UniProt Q15543 1-124, looked up, not shown: glutathione-S-transferase (GST)) MADEEEDPTFEEENEEIGGGAEGGQGKRKRLFSKELRCMMYGFGDDQNPYTESVDILEDLVIEFITEMTHKAMSIGRQGRVQVEDIVFLIRKDPRKFARVKDLLTMNEELKRARKAFDEANYGS			no binding	
GST-hTAFII20 (printed hTAFn20) (other, human, UniProt Q16514 1-161, looked up, not shown: glutathione-S-transferase (GST)) MNQFGPSALINLSNFSSIKPEPASTPPQGSMANSTAVVKIPGTPGAGGRLSPENNQVLTKKKLQDLVREVDPNEQLDEDVEEMLLQIADDFIESVVTAACQLARHRKSSTLEVKDVQLHLERQWNMWIPGFGSEEIRPYKKACTTEAHKQRMALIRKTTKK			no binding	
TIF2.13: TIF2 fragment Pro1011 to Ser1122 (protein, UniProt Q15596 1011-1122, looked up, fragment) PSELEMNMGGPQYSQQQAPPNQTAPWPESILPIDQASFASQNRQPFGSSPDDLLCPHPAAESPSDEGALLDQLYLALRNFDGLEEIDRALGIPELVSQSQAVDPEQFSSQDS				transcriptional activation of GAL4 reporter by GAL4 DBD fusion (GAL4 reporter): potent transcriptional activity; interaction with GAL-CBP, two hybrid (GAL-CBP): also interacted with CBP in vivo
GST-hTAFII55 (printed hTAFn55) (other, human, UniProt Q15545 1-349, looked up, not shown: glutathione-S-transferase (GST)) MSKSKDDAPHELESQFILRLPPEYASTVRRAVQSGHVNLKDRLTIELHPDGRHGIVRVDRVPLASKLVDLPCVMESLKTIDKKTFYKTADICQMLVSTVDGDLYPPVEEPVASTDPKASKKKDKDKEKKFIWNHGITLPLKNVRKRRFRKTAKKKYIESPDVEKEVKRLLSTDAEAVSTRWEIIAEDETKEAENQGLDISSPGMSGHRQGHDSLEHDELREIFNDLSSSSEDEDETQHQDEEDINIIDTEEDLERQLQDKLNESDEQHQENEGTNQLVMGIQKQIDNMKGKLQETQDRAKRQEDLIMKVENLALKNRFQAVLDELKQKEDREKEQLSSLQEELESLLEK			no binding	
